Results reported in US11491212.
Where “and” joins values, the source holds several entries; their conditions need not be identical. Identical values can stand only once.

Biological target: Factor X (FX), P00742
Sequence (P00742 whole entry, looked up): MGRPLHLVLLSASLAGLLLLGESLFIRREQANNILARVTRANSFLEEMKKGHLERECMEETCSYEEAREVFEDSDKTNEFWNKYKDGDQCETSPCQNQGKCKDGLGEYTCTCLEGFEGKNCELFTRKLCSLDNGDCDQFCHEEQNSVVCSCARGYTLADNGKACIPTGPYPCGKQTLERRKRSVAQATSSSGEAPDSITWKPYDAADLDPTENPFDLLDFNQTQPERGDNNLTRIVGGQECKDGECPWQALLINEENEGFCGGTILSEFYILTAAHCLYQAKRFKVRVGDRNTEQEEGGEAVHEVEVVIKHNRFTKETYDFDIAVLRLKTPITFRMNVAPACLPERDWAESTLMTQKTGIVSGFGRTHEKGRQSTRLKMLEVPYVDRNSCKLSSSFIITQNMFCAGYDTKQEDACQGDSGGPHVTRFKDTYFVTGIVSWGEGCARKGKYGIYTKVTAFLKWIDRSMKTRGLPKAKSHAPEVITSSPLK

Row | Protein | % of WT kcat/KM | KM [µM] | kcat [s⁻¹] | KM for FX activation by FIXa in the Xase complex (FVIIIa/PC-PS/Ca2+), fluorogenic Spectrafluor FXa assay [µM] | kcat/KM [M⁻¹ s⁻¹]
1 | FIXa-Y155F/R318Y/R403E/E410N (protein) chain 1: not shown chain 2: not shown | 78% | 0.111 | 2.9 |  | 
2 | FIXa-R318Y/R338E/R403E/E410N (protein) chain 1: not shown chain 2: not shown | 262% and 320% | 0.0432 | 5.8 | 0.0455 | 1.2e+08
3 | FIXa-A103N/N105S/R318Y/R338E/R403E/E410N (protein) chain 1: not shown chain 2: not shown | 327% and 318% | 0.0447 | 5.4 | 0.0447 | 
4 | FIXa-D104N/K106S/R318Y/R338E/R403E/E410N (protein) chain 1: not shown chain 2: not shown | 377% and 366% | 0.0385 | 5.7 | 0.0385 | 
5 | FIXa-R318Y/R403E/E410N (protein) chain 1: not shown chain 2: not shown | 59% and 54% | 0.0942 | 2.3 | 0.0883 | 2.7e+07
